Values joined by “and” are separate entries in the source; they are usually repeats but may differ in a detail not shown here. Equal entries are not always repeated.
Legend:
[1] = MR‐proADM stability in CSF samples stored at −20°C; format: in vitro ADME, human; conditions: for Mean difference pre and post freezing: mean of samples
Description: (§1) MR‐proADM concentrations were measured in CSF using the B.R.A.H.M.S. MR‐proADM fluoroimmunoassay on the Brahms Kryptor Gold Analyzer (THERMO […], Hennigsdorf, Germany), which is a fully automated homogeneous phase random access platform. The system uses the TRACE (Time‐Resolved Amplified Cryptate Emission) technology to measure the fluorescence signal emitted by an immunocomplex. MR‐proADM results are expressed in nmol/L. The declared linearity in plasma EDTA samples ranges from 0.21 to 100 nmol/L, with a maximum bias of ±20%. The manufacturer's reference range for EDTA plasma samples is < 0.56 nmol/L, corresponding to the 97.5th percentile of a control series, which disclosed a median value of 0.38 nmol/L. The Limit of Detection (LoD) is 0.09 nmol/L, while the Limit of Quantitation (LoQ) is 0.21 nmol/L (IFU_B.R.A.H.M.S. MR‐proADM KRYPTOR assay; 07 April 2022; Thermo Scientific, Hennigsdorf, Germany). This MR‐proADM immunoassay is currently certified only for plasma‐EDTA blood samples, and the manufacturer recommends immediate centrifugation to preserve molecular stability at room temperature (18°C–25°C) or at 2°C–8°C up to 24 h. Afterwards, samples should be aliquoted and frozen at −20°C or below. Plasma samples can be kept frozen up to 14 days, and the analyte is considered stable for up to 4 freeze/thaw cycles.
According to the recommendations in plasma, MR‐proADM was measured in clear CSF samples after centrifugation to avoid interference by cells or other microparticles. Bloody CSF samples were discarded. The first step was aimed at assessing MR‐proADM stability in CSF as a function of different storage temperatures and storage time after collection. To test room temperature stability in CSF, we measured MR‐proADM in 10 fresh samples (T0) and after 12, 24, and 48 h (T1, T2, T3) on the bench (25°C). To test recovery after storage at −20°C, we measured MR‐proADM concentration in 29 CSF samples stored frozen for less than 15, 16 to 60, and more than 60 days. Finally, to test recovery after storage at −80°C, we measured MR‐proADM concentration in 25 CSF samples before and after a variable period of storage at −80°C. The second step of our study was to evaluate the analytical performance of the B.R.A.H.M.S. MR‐proADM method using CSF samples. For this purpose, we evaluated the repeatability and the within‐laboratory precision of this assay. Due to the small amount of CSF volume obtained from each residual sample, 58 CSF samples were pooled in 3 subgroups according to their MR‐proADM values, thus creating 3 pools of about 5 mL volume each, characterized by low, medium, and high MR‐proADM concentration. These pools were finally stored at −20°C. […]

[2] = plasma‐EDTA, ref IFU_B.R.A.H.M.S. MR‐proADM KRYPTOR assay, 07 April 2022, cited from earlier work
Description: MR‐proADM concentrations were measured in CSF using the B.R.A.H.M.S. MR‐proADM fluoroimmunoassay on the Brahms Kryptor Gold Analyzer (THERMO […], Hennigsdorf, Germany), which is a fully automated homogeneous phase random access platform. The system uses the TRACE (Time‐Resolved Amplified Cryptate Emission) technology to measure the fluorescence signal emitted by an immunocomplex. MR‐proADM results are expressed in nmol/L. The declared linearity in plasma EDTA samples ranges from 0.21 to 100 nmol/L, with a maximum bias of ±20%. The manufacturer's reference range for EDTA plasma samples i ...

[3] = body fluids; statement of the introduction; cited from earlier work
[4] = MR‐proADM stability in CSF samples stored at −80°C; format: in vitro ADME, human
Description: as §1
(§2) According to the recommendations in plasma, MR‐proADM was measured in clear CSF samples after centrifugation to avoid interference by cells or other microparticles. Bloody CSF samples were discarded. The first step was aimed at assessing MR‐proADM stability in CSF as a function of different storage temperatures and storage time after collection. To test room temperature stability in CSF, we measured MR‐proADM in 10 fresh samples (T0) and after 12, 24, and 48 h (T1, T2, T3) on the bench (25°C). To test recovery after storage at −20°C, we measured MR‐proADM concentration in 29 CSF samples stored frozen for less than 15, 16 to 60, and more than 60 days. Finally, to test recovery after storage at −80°C, we measured MR‐proADM concentration in 25 CSF samples before and after a variable period of storage at −80°C. The second step of our study was to evaluate the analytical performance of the B.R.A.H.M.S. MR‐proADM method using CSF samples. For this purpose, we evaluated the repeatability and the within‐laboratory precision of this assay. Due to the small amount of CSF volume obtained from each residual sample, 58 CSF samples were pooled in 3 subgroups according to their MR‐proADM values, thus creating 3 pools of about 5 mL volume each, characterized by low, medium, and high MR‐proADM concentration. These pools were finally stored at −20°C.
(§3) To assess the difference between measures of MR‐proADM in fresh samples and after storage at room temperature, at −20°C, and at −80°C, we used the Wilcoxon matched‐paired T test, considering significant p < 0.05.

[5] = MR‐proADM stability in CSF at room temperature (B.R.A.H.M.S. MR‐proADM KRYPTOR fluoroimmunoassay); format: in vitro ADME, human
Description: as §1, §2, §3

## Mid‐regional proADM (ELRMSSSYPTGLADVKAGPAQTLIRPQDMKGASRSPEDSSPDAARIRV; MR-proADM; UniProt P35318 45-92, looked up, fragment) [MR‐proADM]
[1]; CSF stored at −20°C for less than 15 days
  Mean difference pre and post freezing: 14.2%
[1]; CSF stored at −20°C for more than 60 days
  Mean difference pre and post freezing: 18.6%
[1]; CSF stored at −20°C from 16 to 60 days
  Mean difference pre and post freezing: 15.9%
[1]; CSF stored at −20°C, worst cases
  Percentage reduction in some samples: up to 50%
[2]; room temperature (18°C–25°C) or 2°C–8°C
  Time of molecular stability after centrifugation: up to 24 h
[2]; −20°C or below
  Time plasma samples can be kept frozen: up to 14 days
[2]
  Freeze/thaw cycles over which the analyte is considered stable: up to 4 freeze/thaw cycles
[3]
  half‐life compared with ADM (in words): longer half‐life
[4]; 25 CSF samples, variable storage time at −80°C
  Stability in CSF samples stored at −80°C (in words): quite stable
[4]; CSF stored at −80°C, 25 samples
  Decrement, half of the samples: ≤ 10%
[4]; CSF stored at −80°C, p < 0.001 vs fresh
  Loss of recovery / decrement versus fresh, majority of cases: less than 10%
[4]; CSF, −80°C
  Storage time at −80°C with very good stability: at least 24 months
[4]; baseline before storage at −80°C, 25 individual CSF samples S1–S25, one line per sample
  MR‐proADM concentration, Fresh: 0.55 nmol/L and 0.56 nmol/L and 0.77 nmol/L and 0.51 nmol/L and 0.53 nmol/L and 0.59 nmol/L and 0.66 nmol/L and 0.70 nmol/L and 0.89 nmol/L and 1.00 nmol/L and 0.43 nmol/L and 0.57 nmol/L and 0.64 nmol/L and 0.69 nmol/L and 0.75 nmol/L and 0.62 nmol/L and 0.71 nmol/L and 0.73 nmol/L and 0.79 nmol/L and 0.54 nmol/L
[5]; CSF on the bench at room temperature (25°C) for 12 h, individual samples S1–S10, one line per sample, p = 0.2918 vs fresh
  MR‐proADM concentration, After 12 h: 0.45 nmol/L and 2.67 nmol/L and 0.80 nmol/L and 1.11 nmol/L and 1.23 nmol/L and 0.91 nmol/L and 1.07 nmol/L and 0.96 nmol/L and 1.63 nmol/L
[5]; CSF on the bench at room temperature (25°C) for 24 h, individual samples S1–S10, one line per sample, p = 0.6760 vs fresh
  MR‐proADM concentration, After 24 h: 0.51 nmol/L and 2.61 nmol/L and 0.80 nmol/L and 1.15 nmol/L and 1.25 nmol/L and 0.93 nmol/L and 1.09 nmol/L and 0.92 nmol/L and 1.67 nmol/L
[5]; CSF on the bench at room temperature (25°C) for 48 h, individual samples S1–S10, one line per sample, p = 0.1515 vs fresh
  MR‐proADM concentration, After 48 h: 0.45 nmol/L and 2.74 nmol/L and 0.78 nmol/L and 1.14 nmol/L and 1.27 nmol/L and 0.93 nmol/L and 1.12 nmol/L and 0.97 nmol/L and 0.99 nmol/L and 1.64 nmol/L
[5]; CSF, 25°C, 12, 24 and 48 h, n = 10 samples, no significant difference from fresh
  Stability in CSF samples stored at room temperature (in words): highly stable
[5]; CSF, room temperature (25°C)
  Storage time at room temperature over which MR‐proADM remains highly stable in CSF: ≤ 48 h
[5]; T0 baseline, clear centrifuged CSF, 10 individual samples S1–S10, one line per sample, TRACE fluoroimmunoassay, Kryptor
  MR‐proADM concentration, Fresh: 0.45 nmol/L and 2.67 nmol/L and 0.79 nmol/L and 1.15 nmol/L and 1.23 nmol/L and 0.92 nmol/L and 1.07 nmol/L and 0.94 nmol/L and 0.98 nmol/L and 1.65 nmol/L

Reference: paper PMC12217647, “Mid‐Regional Proadrenomedullin Can Be Reliably Measured in Cerebrospinal Fluid to Improve Diagnosis of Central Nervous System Diseases” (Journal of Clinical Laboratory Analysis, 2025)
